# Measured values taken from US8754034B2, “Structure-based design of peptide inhibitors of amyloid fibrillation” (The Regents of the University of California, priority 2009, dated 2014).
# Entries after “also recorded” stand apart in the source; their conditions may differ. Where no end group is shown, it is not given here. [ ]: non-standard residue; d: D form.
# What was measured:
# tau K12 [1] = target: T1, tau K12 (Homo sapiens, UniProt P10636); test: Fibril formation inhibition assay of tau K12 monitored by ThS fluorescence; type: biochemical; details: for effect on tau K12 fibrillation (ThS fluorescence): peptide at equimolar ratio with K12; for effect on K12 fibrillation, comparison between peptides: ThS fluorescence, ratio not given (FIG. 4); for ratio (concentration) dependence of the delay of K12 fibrillation (lag time): various molar ratios of peptide to K12 (FIGS. 5, 6); for average lag time of K12 fibrillation: peptide at equimolar ratio with K12 (FIG. 10b)
# T1 construct: starting Met residue (added initiator methionine before Q244) (N); made in house; host or cells: E. coli BL21 (DE3), vector pNG2 (pET-3b derivative)
# T1 sequence (P10636 186-305 isoform P10636-2): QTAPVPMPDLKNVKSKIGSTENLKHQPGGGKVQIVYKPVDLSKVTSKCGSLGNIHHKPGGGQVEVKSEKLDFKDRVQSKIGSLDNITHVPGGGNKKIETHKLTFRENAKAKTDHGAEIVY
# Procedure: 150 μL reactions containing 50 or 100 μM tau K12, as determined by the micro BCA Protein Assay Kit (Pierce), were incubated in 250 mM sodium phosphate buffer pH 7.4 with 1 mM DTT, 3 μM heparin, and 10 μM ThS (Friedhoff et al., 1998; Perez et al., 1996; Schweers et al., 1995). Peptides were dissolved in 250 mM sodium phosphate buffer pH 7.4 and added at various molar ratios to the reaction mixtures. The fluorescence signal was measured every 15 minutes with excitation and emission wavelengths of 440 and 510 nm, respectively, at 37° C. with continuous shaking at 900 rpm with a diameter of 1 mm in a Varioskan plate reader (Thermo Fisher Scientific, Inc.). Reactions were split into a minimum of 3 replicates in Nunc optically clear bottom, 96-well black plates, sealed with Corning pressure seal tape and monitored for various times. Each experiment was repeated a minimum of four times yielding the same results.
# tau K12 [2] = target: T1, tau K12; test: Electron microscopy of tau K12 fibril formation in the presence of peptides; type: biochemical; details: K12 incubated with peptide, with or without ThS
# Procedure: 5 μL of sample were applied to glow discharged 400 mesh carbon-coated formar films on copper grids (Ted Pella, Inc.) for three minutes. Grids were rinsed twice with distilled water and stained with 1% uranyl acetate for 90 seconds. Grids were examined in a Hitachi H-7000 transmission electron microscope at 75 kEv.
# amyloid β protein = amyloid β protein (Homo sapiens, UniProt P05067); test: Amyloid beta fibrillation monitored by thioflavin T fluorescence; type: biochemical; details: thioflavin T fluorescence (FIG. 4b)
# Chain of amyloid β protein (P05067 672-713 limits assumed): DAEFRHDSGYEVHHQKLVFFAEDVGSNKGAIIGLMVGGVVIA
# Description: In FIG. 4(b), fibril formation of amyloid beta (abeta) protein is not delayed by addition of D-TLKIVW. Tau K12 fibrillation is monitored by ThS fluorescence and amyloid beta fibrillation is monitored by thioflavin T fluorescence.
# tau K12 construct = tau K12 construct (UniProt P10636-8 244-274; P10636-8 306-394, limits assumed); test: cell-based or functional assay
# Chain of tau K12 construct (P10636 other isoform, or with tags, fused parts or gaps limits assumed): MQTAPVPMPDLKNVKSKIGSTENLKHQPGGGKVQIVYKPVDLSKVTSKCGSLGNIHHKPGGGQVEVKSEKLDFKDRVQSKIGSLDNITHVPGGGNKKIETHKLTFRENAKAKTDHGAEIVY
molecule,measurement,setting,value
"D-GVIGIA (G[dV][dI]G[dI][dA]) [D-amino acid control peptide, a stereoisomer of an L-amino acid peptide known to aggregate on its own, reference compound]",effect on tau K12 fibrillation (ThS fluorescence),tau K12 [1],no effect on fibrillation; also recorded: without any effect on fibrillation
"D-TIWKVL ([dT][dI][dW][dK][dV][dL]) [scrambled peptide of D-TLKIVW, reference compound]","effect on K12 fibrillation, comparison between peptides",tau K12 [1],does not delay the onset of K12 fibrillation
D-DYYFEF ([dD][dY][dY][dF][dE][dF]) [D-amino acid peptide designed to pack against the bottom of the VQIVYK atomic structure],"effect on K12 fibrillation, comparison between peptides",tau K12 [1],improved capping over D-DYYFEK
same,effect on tau K12 fibrillation (ThS fluorescence),tau K12 [1],no inhibition
same,ratio (concentration) dependence of the delay of K12 fibrillation (lag time),tau K12 [1],delayed K12 fibrillation in a concentration dependent manner; also recorded: some effect at delaying fibrillation
"L-VQIVYK (SEQ ID NO: 1) [steric zipper segment of tau, used as control peptide, reference compound]",effect on tau K12 fibrillation (ThS fluorescence),tau K12 [1],no significant effect on fibrillation
same,effect on tau K12 fibrillation (ThS fluorescence),tau K12 [1]; listed as VQIVYK,no effect at equimolar concentrations or in excess
"D-TIKWVL ([dT][dI][dK][dW][dV][dL]) [scrambled peptide of D-TLKIVW, order of residues scrambled in one face]","effect on K12 fibrillation, comparison between peptides",tau K12 [1],does not delay the onset of K12 fibrillation
same,effect on tau K12 fibrillation (ThS fluorescence),tau K12 [1],some inhibitory effect; also recorded: not nearly as effective as D-TLKIVW
"D-LKTWIV ([dL][dK][dT][dW][dI][dV]) [scrambled peptide of D-TLKIVW, reference compound]","effect on K12 fibrillation, comparison between peptides",tau K12 [1],does not delay the onset of K12 fibrillation
D-YVIIER ([dY][dV][dI][dI][dE][dR]) [D-amino acid peptide designed to pack against the bottom of the VQIVYK fibril structure],effect on tau K12 fibrillation (ThS fluorescence),tau K12 [1],some delay
same,ratio (concentration) dependence of the delay of K12 fibrillation (lag time),tau K12 [1],delayed K12 fibrillation in a concentration dependent manner; also recorded: clear ratio dependence
D-TWKLVL ([dT][dW][dK][dL][dV][dL]) [D-amino acid peptide designed to pack against the top of the VQIVYK fibril structure],fibril formation of K12 seen by electron microscopy,tau K12 [2],Fibrils do not form
same,fibril formation of K12 seen by electron microscopy,tau K12 [2]; listed as DTWKLVL,there were no fibrils
same,molar ratio of peptide relative to tau K12 at which a marginal effect on delay of fibrillation was observed,tau K12 [1],10 fold less peptide relative to tau K12 concentration
same,duration of effective inhibition of K12 fibrillation,tau K12 [1]; 5-fold excess peptide,about 1 week
same,peptide concentration relative to K12 at which an inhibitory effect is still seen,"tau K12 [1]; ThS fluorescence (FIGS. 5, 6)",10 % the molar concentration of K12
same,delay of K12 fibrillation,tau K12 [1]; peptide at equimolar ratio with K12 (FIG. 3a),more than 30 hours
same,ratio (concentration) dependence of the delay of K12 fibrillation (lag time),tau K12 [1],still were inhibiting fibrillation of K12
D-TLKIVW ([dT][dL][dK][dI][dV][dW]) [D-amino acid peptide designed to pack against the top of the VQIVYK fibril-like structure of tau],fibril formation of K12 seen by electron microscopy,tau K12 [2],there were no fibrils; also recorded: prevents fibril formation; also recorded: fibrils do not form
same,molar ratio of peptide relative to tau K12 at which a marginal effect on delay of fibrillation was observed,tau K12 [1],50 fold less peptide relative to tau K12 concentration
same,time without ThS signal,"tau K12 [1]; 50 μM K12, peptide at 2-fold and 5-fold excess, some of the samples",> 300 h
same,time without fibril formation,"tau K12 [1]; 2-fold or 5-fold excess peptide, some experiment replicates",more than 2 weeks
same,"effect on K12 fibrillation, comparison between peptides",tau K12 [1],the most effective peptide; also recorded: delays fibrillation relative to K12 alone
same,effect on tau K12 fibrillation (ThS fluorescence),tau K12 [1],inhibition for several days
same,average lag time of K12 fibrillation,tau K12 [1],over 140 hours
same,effect on tau K12 fibrillation (ThS fluorescence),tau K12 [1]; listed as D-amino acid peptide TLKIVW,prevents the formation of K12fibrils
same,ratio (concentration) dependence of the delay of K12 fibrillation (lag time),tau K12 [1],delayed longer by higher concentrations of the D-peptide
same,effect on fibril formation of amyloid beta protein,amyloid β protein,no effect on fibrillation; also recorded: not delayed
L-TLKIVW (SEQ ID NO: 3) [L-amino acid enantiomer of D-TLKIVW],"effect on K12 fibrillation, comparison between peptides",tau K12 [1],"able to inhibit fibril formation, but not nearly as long as D-TLKIVW"
same,effect on tau K12 fibrillation (ThS fluorescence),tau K12 [1],"able to inhibit fibril formation, but not nearly as long as D-TLKIVW; also recorded: not nearly as effective as D-TLKIVW"
same,average lag time of K12 fibrillation,tau K12 [1],about 40 hours
D-DYYFEK ([dD][dY][dY][dF][dE][dK]),effect on tau K12 fibrillation (ThS fluorescence),tau K12 [1],all peptides except D-DYYFEK systematically delayed fibrillation
[dT][dL][dK][dI][dV][dW] (designed binder) [D-TLKIVW],"average lag time of K12 fibrillation (ThS fluorescence), equimolar ratio",tau K12 construct,> 140 h
same,molar amount of peptide relative to tau K12 construct to delay fibrillation,tau K12 construct,50 fold less peptide than K12
same,time without K12 fibrils at 2-fold or 5-fold excess peptide,tau K12 construct,> 2 weeks
[dT][dW][dK][dL][dV][dL] (designed binder) [D-TWKLVL],delay of K12 fibrillation at equimolar ratio (ThS fluorescence),tau K12 construct,> 30 h
same,duration of inhibition of K12 fibrillation at 5-fold excess peptide,tau K12 construct,~1 week
same,molar amount of peptide relative to tau K12 construct to delay fibrillation,tau K12 construct,10 fold less peptide than K12
[dT][dI][dK][dW][dV][dL] [D-TIKWVL],"average lag time of K12 fibrillation (ThS fluorescence), equimolar ratio",tau K12 construct,54 h
